Holding throughout (details): remark: other sources report otherwise
In assay [1] the target is recombinant soluble homotrimeric HA, A/northern shoveler/California/HKWF115/07 H6N4 (Influenza A virus A/northern shoveler/California/HKWF115/2007(H6N1)). Nature of the assay: microarray, transfection SN IgG, trimeric HA.
The target of assay [2] is recombinant soluble homotrimeric HA, A/Japan/305/57 H2N2 (Influenza A virus A/Japan/305/1957(H2N2)). Nature of the assay: microarray, transfection SN IgG, trimeric HA.
Assay [3] deals with recombinant soluble homotrimeric HA, A/Egypt/3300-NAMRU3/08 H5N1 (Influenza A virus A/Egypt/3300-NAMRU3/2008(H5N1)). Nature of the assay: microarray, transfection SN IgG, trimeric HA.
Assay [4] concerns the target recombinant soluble homotrimeric HA, A/duck/Yangzhou/02/05 H8N4 (Influenza A virus A/duck/Yangzhou/02/2005(H8N4)). Put plainly: microarray, transfection SN IgG, trimeric HA.
Assay [5] concerns the target recombinant soluble homotrimeric HA, A/California/4/09 H1N1 (Influenza A virus A/California/04/2009(H1N1)). Nature of the assay: microarray, transfection SN IgG, trimeric HA.
For assay [6], the target named is recombinant soluble homotrimeric HA, A/Hong Kong/156/97 H5N1 (Influenza A virus A/Hong Kong/156/97 (H5N1)). Nature of the assay: microarray, transfection SN IgG, trimeric HA.
The target in assay [7] is recombinant soluble homotrimeric HA, A/Wisconsin/67/05 H3N2 (Influenza A virus A/Wisconsin/67/2005(H3N2)). Nature of the assay: microarray, transfection SN IgG, trimeric HA.
In assay [8] the target is recombinant soluble homotrimeric HA, A/chicken/Vietnam/NCVD-016/08 H5N1 (Influenza A virus A/chicken/Vietnam/NCVD-016/2008(H5N1)). Put plainly: microarray, transfection SN IgG, trimeric HA.
The target in assay [9] is recombinant soluble homotrimeric HA, A/Vietnam/1203/04 H5N1 (Influenza A virus A/VietNam/1203/2004(H5N1)). Put plainly: microarray, transfection SN IgG, trimeric HA.
In assay [10] the target is recombinant soluble homotrimeric HA, A/Solomon Islands/3/06 H1N1 (Influenza A virus A/Solomon Islands/3/2006(H1N1)). Put plainly: microarray, transfection SN IgG, trimeric HA.
For assay [11], the target named is recombinant soluble homotrimeric HA, A/Indonesia/5/05 H5N1 (Influenza A virus A/Indonesia/5/2005(H5N1)). Nature of the assay: microarray, transfection SN IgG, trimeric HA.
Assay [12] has as its target recombinant soluble homotrimeric HA, A/South Carolina/1/18 H1N1 (Influenza A virus A/South Carolina/1/18 (H1N1)). Put plainly: microarray, transfection SN IgG, trimeric HA.
Assay [13] has as its target recombinant soluble homotrimeric HA, A/Anhui/1/05 H5N1 (Influenza A virus A/Anhui/1/2005(H5N1)). Nature of the assay: microarray, transfection SN IgG, trimeric HA.
Assay [14] concerns the target T1, recombinant soluble homotrimeric HA of A/Egypt/3300-NAMRU3/08 (H5N1) (Influenza A virus A/Egypt/3300-NAMRU3/2008(H5N1)). Nature of the assay: HA microarray, BCC supernatant.
Assay [15] addresses recombinant soluble homotrimeric HA of A/chicken/Vietnam/NCVD-016/08 (H5N1) (Influenza A virus A/chicken/Vietnam/NCVD-016/2008(H5N1)). Nature of the assay: trimeric HA microarray, transfection supernatant set 2.
For assay [16], the target named is recombinant soluble homotrimeric HA of A/Netherlands/219/03 (H7N7) (Influenza A virus A/Netherlands/219/03(H7N7)). Described as above.
Assay [17] deals with recombinant soluble homotrimeric HA of A/Japan/305/57 (H2N2) (Influenza A virus A/Japan/305/1957(H2N2)). Described as above.
Assay [18] addresses recombinant soluble homotrimeric HA of A/Vietnam/1203/04 (H5N1) (Influenza A virus A/VietNam/1203/2004(H5N1)). The description is as above.
Assay [19] deals with recombinant soluble homotrimeric HA of A/California/4/09 (H1N1) (Influenza A virus A/California/04/2009(H1N1)). The assay is described as above.
The target in assay [20] is recombinant soluble homotrimeric HA of A/South Carolina/1/18 (H1N1) (Influenza A virus A/South Carolina/1/18 (H1N1)). Described as above.
Assay [21] concerns the target recombinant soluble homotrimeric HA of A/Solomon Islands/3/06 (H1N1) (Influenza A virus A/Solomon Islands/3/2006(H1N1)). The description is as above.
The target of assay [22] is recombinant soluble homotrimeric HA of A/Indonesia/5/05 (H5N1) (Influenza A virus A/Indonesia/5/2005(H5N1)). Described as above.
In assay [23] the target is T1, recombinant soluble homotrimeric HA of …. The assay is described as above.
Assay [24] has as its target recombinant soluble homotrimeric HA of A/Anhui/1/05 (H5N1) (Influenza A virus A/Anhui/1/2005(H5N1)). Described as above.
Assay [25] concerns the target recombinant homotrimeric HA A/swine/Ontario/01911-2/99 H4N6 (Influenza A virus A/Swine/Ontario/01911-2/99 (H4N6)). Nature of the assay: protein microarray, purified IgG, trimeric HA.
Assay [26] concerns the target recombinant homotrimeric HA A/duck/Yangzhou/02/05 H8N4 (Influenza A virus A/duck/Yangzhou/02/2005(H8N4)). Put plainly: protein microarray, purified IgG, trimeric HA.

B1: TCN-553 (5261_C18) (antibody, V domains shown)
VH: QVQVVQSGTEVKKPGSSVKVSCQTSGGRFMSYAITWVRQAPGQGLEWMGGIVPVFGTANYAQKFQGRVTITTDDSTRTAYMELSSLRSEDTAVYYCGFRYGSGYGFDSWGQGTLVTVSS
VL: EIVLTQSPGTLSLSPGERATLSCRASQSVSSSYLAWYQKKPGQAPRLLIYGASTRATGIPDRFTGSGSGTDFTLSISRLEPEDFAVYYCQHFGTSVFTFGGGTKVEIK
For B1, the Trimeric HA Binding: RLU in assay [1] is 32500 RLU; in assay [2], 39800 RLU; in [3], 19500 RLU; in assay [4], 12500 RLU; in assay [5], 23300 RLU; in [6], 36300 RLU. Moreover, the Trimeric HA Binding: RLU turned out to be 25200 RLU in assay [7]; 34700 RLU in [8]; 19200 RLU in assay [9]; 49600 RLU in assay [10]; 31200 RLU in [11]; 41300 RLU in assay [12]. Also, the figures for the Trimeric HA Binding: RLU in [13] and in [14] were 8550 RLU and 18800 RLU, respectively.

B2: TCN-527 (5086_C06) (antibody, V domains shown)
VH: QVQLQESGPGLVKPSETLSLNCAVSGGSISNYYWSWIRQPPGKGLEWIGYISYNGRPKYNPSLTSRVTISVDTSKDQFSLELRSVTAADTALYYCARETRFGELLSPYDAFEIWGQGTMVTVSS
VL: DIQMTQSPSSLSASVGDRVTMTCRASQNIRSYLNWYQQRPGTAPKLLIYAASTLHSGVPSRFSGGGSGTDFTLTINNLQPEDFASYYCQQSYDNPQTFGQGTKVEIK
Take B2: the Trimeric HA Binding: RLU in [15] stood at 20100 RLU; in [16], 49100 RLU; in [17] it was 20800 RLU; in [18], 20600 RLU; in assay [19] it was 21500 RLU; in assay [20], 48100 RLU. Also, the Trimeric HA Binding: RLU in [21] is 19700 RLU; in assay [22] it was 23400 RLU; in assay [23], 23600 RLU; in assay [24] it was 15200 RLU; in assay [25], 11100 RLU; in [26], 26000 RLU.

B3: TCN-555 (5246_L16) (antibody, V domains shown)
VH: QVQLVQSGAEVKRPGSSVKVSCTASGGIFRKNAISWVRQAPGQGLEWMGGIIAVFNTANYAQKFQNRVKITADESGNTAYMELSSLTSDDTAVYYCASHPKYFYGSGSYPDFWGQGTLVTVSS
VL: QSALTQPRSVSGSPGQSITISCTGGSSDIGASNSVSWYQQHPGKAPKLVIFDVTERPSGVPHRFSGSKSGNTASLTVSGLQPDDEADYFCCAYGGKYLVVFGGGTKVTVL
As for B3, the Trimeric HA Binding: RLU was 28700 RLU in assay [1]; 16700 RLU in [2]; 20000 RLU in assay [3]; 8540 RLU in [4]; 20200 RLU in [5]; 36300 RLU in assay [6]. The Trimeric HA Binding: RLU turned out to be 14700 RLU in assay [7]; 35200 RLU in [8]; 19300 RLU in assay [9]; 44600 RLU in assay [10]; 33900 RLU in assay [11]; 48000 RLU in [12]. Further, the Trimeric HA Binding: RLU in assay [13] was determined as 12200 RLU; in assay [26], 375 RLU; in assay [14], 42700 RLU.

B4: TCN-563 (5237_B21) (antibody, V domains shown)
VH: QVQLAQSGAEVKRPGSSVKVSCTASGGIFRKNAISWVRQAPGQGLEWMGGIIAVFNTANYAQKFQGRVKITADESGNTAYMELSSLRSDDTAVYYCASHPKYFYGSGSYPDFWGQGTLVTVSS
VL: QSALTQPRSVSGSPGQSVTISCTGSSSDVGASNSVSWYQQHPGKAPKLVIYDVTERPSGVPHRFSGSKSGNTASLTVSGLQPEDEADYFCCAYGGKYLVVFGGGTKVTVL
For the molecule B4, the Trimeric HA Binding: RLU in assay [15] worked out at 36300 RLU; in assay [16] it was 5420 RLU; in [17], 11200 RLU; in assay [18], 31500 RLU; in assay [19] it was 21200 RLU; in [20] it was 17800 RLU. Further, the Trimeric HA Binding: RLU came to 26500 RLU in assay [21]; 47300 RLU in assay [22]; 23900 RLU in assay [23]; 1570 RLU in [24]; 27500 RLU in assay [14].

B5: TCN-557 (5081_A04) (antibody, V domains shown)
VH: QVQLVQSGAEVKKPGASVKVSCKASGHTFTGYYIHWVRQAPGQGLEWMGWINPDSGATSSAQNFQGRVTMTGDTSSSTAYMELSRLSFDDTAVYYCARVLFTSPFDFWGEGTLVTVSS
VL: QAVVTQEPSLAVSPGGTVTLTCGSSTGAVTRGHYPYWFQQKPGQAPRALIYDSAGNRHSWTPARFSGSLLGGKAALTLSGAQPEDEAEYYCLLSYSGVWVFGGGTKLTVL
Consider B5, for which the Trimeric HA Binding: RLU in assay [1] was 49600 RLU; in assay [2], 27300 RLU; in [3], 26400 RLU; in [4] it was 24000 RLU; in assay [5], 44400 RLU; in assay [6], 27100 RLU. The Trimeric HA Binding: RLU in [7] worked out at 46100 RLU; in assay [8], 23300 RLU; in assay [9] it was 21300 RLU; in assay [10], 27000 RLU; in assay [11] it was 22200 RLU; in [12], 44900 RLU. The Trimeric HA Binding: RLU in [13] is 20000 RLU; in assay [25], 19200 RLU; in assay [26], 27200 RLU.

B6: TCN-522 (3212_I12) (antibody, V domains shown)
VH: QVQLQQWGAGLLKPSETLSLTCTVSGGSLTDYSWNWIRQPPGKGLEWIGDTLHNGYTNYNPSLRGRVSISIDTSKNQVSLRLTSVTAADTALYYCARGSGGYGGFDYFGKLRTWDFWGQGTLVTVSS
VL: DIQLTQSPSSLSASVGDRVTITCRASQGIRNDLGWYQQKPGNAPKRLIFGASSLQSGVPSRFSGSGSGTEFTLTISSLQPEDFATYYCLQHNSYPYTFGQGTKLEIK
Consider B6, for which the Trimeric HA Binding: RLU in assay [15] was 49300 RLU; in [16] it was 2170 RLU; in assay [17], 11900 RLU; in assay [18] it was 48200 RLU; in assay [19], 37500 RLU; in [20], 39600 RLU. Besides, the Trimeric HA Binding: RLU in assay [21] came to 17300 RLU; in [22] it was 50500 RLU; in assay [23] it was 55400 RLU; in assay [24], 2030 RLU; in [25] it was 73 RLU.

Source of the values: patent US20150086555A1.
